Source: patent publication US20170067091
Where two headings read alike, the source gives them in different places.

What was measured:
[1] = system: Immunoglobulin E (human myeloma IgE) (Homo sapiens); settings: nominal Kd, no asymptote reached; described as negligible binding; fluorescence bead binding assay
[2] = system: Immunoglobulin E (human myeloma IgE) (Homo sapiens); settings: fluorescence bead binding assay, 30 min incubation, wash, thermal elution at 95 C; monovalent binding assumed; enriched pool, individual sequences not given

GCCTGTTGTGAGCCTCCTGTCGAANNNNNNNNNNNNNNNNNNNNNNNNNNNNNNNNNNNNNNNNNNNNNTTGAGCGTTTATTCTTGTCTCCC [randomized 45N library]
Kd [1]: 620 nM

GCCTGTTGTGAGCCTCCTGTCGAANNNNNNNNNNNNNNNNNNNNNNNNNNNNNNNNNNNNNNNNNNNNNTTGAGCGTTTATTCTTGTCTCCC [round-4 enriched IgE aptamer pool]
Kd [2]: 12 nM
